Measured values as given in patent US12692524B2, “Sialyltransferases and their use in producing sialylated oligosaccharides” (Chr. Hansen A/S, priority 2017, dated 2026).

B1: SiaT73: sialyltransferase of Haemophilus somnus 2336, acc. ACA31170, SEQ ID NO: 20 (protein, listed as Haemophilus somnus)
chain: MKYNIKIKAIVIVSSLRMLLIFLMLNKYHLDEVLFVFNEGFELHKKYKIKHYVAIKKKITKFWRLYYKLYFYRFKIDRIPVYGADHLGWTDYFLKYFDFYLIEDGIANFSPKRYEINLTRNIPVFGFHKTVKKIYLTSLENVPSDIRHKVELISLEHLWKTRTAQEQHNILDFFAFNLDSLISLKMKKYILFTQCLSEDRVISEQEKIAIYQHIIKNYDERLLVIKPHPRETTDYQKYFENVFVYQDVVPSELFELLDVNFERVITLFSTAVFKYDRNIVDFYGTRIHDKIYQWFGDIKF
B2: SiaT51: sialyltransferase of Photobacterium damselae subsp. damselae CIP 102761, acc. EEZ40509, SEQ ID NO: 32 (protein, listed as Photobacterium damsela)
chain: MKKILTVLSIFILSACNSDNTSLKETVSSNSADVVETETYQLTPIDAPSSFLSHSWEQTCGTPILNESDKQAISFDFVAPELKQDEKYCFTFKGITGDHRYITNTTLTVVAPTLEVYIDHASLPSLQQLIHIIQAKDEYPSNQRFVSWKRVTVDADNANKLNIHTYPLKGNNTSPEMVAAIDEYAQSKNRLNIEFYTNTAHVFNNLPPIIQPLYNNEKVKISHISLYDDGSSEYVSLYQWKDTPNKIETLEGEVSLLANYLAGTSPDAPKGMGNRYNWHKLYDTDYYFLREDYLDVEANLHDLRDYLGSSAKQMPWDEFAKLSDSQQTLFLDIVGFDKEQLQQQYSQSPLPNFIFTGTTTWAGGETKEYYAQQQVNVINNAINETSPYYLGKDYDLFFKGHPAGGVINDIILGSFPDMINIPAKISFEVLMMTDMLPDTVAGIASSLYFTIPADKVNFIVFTSSDTITDREEALKSPLVQVMLTLGIVKEKDVLFWADLPDCSSGVCIDK
B3: SiaT43: sialyltransferase of Bibersteinia trehalosi USDA-ARS-USMARC-189, acc. AHG84654, SEQ ID NO: 18 (protein, listed as Bibersteinia trehalosi)
chain: MEFCKMATTQKICVYLDYATIPSLNYILHFAQHFEDQETIRLFGLSRFHIPESVIQRYPKGVVQFYPNQEKDFSALLLALKNILIEVKQQQRKCEIELHLNLFHYQLLLLPFLSLYLDTQDYCHLTLKFYDDGSEAISALQELALAPDLAAQIQFEKQQFDELVVKKSFKLSLLSRYFWGKLFESEYIWFNQAILQKAELQILKQEISSSRQMDFAIYQQMSDEQKQLVLEILNIDLNKVAYLKQLMENQPSFLFLGTTLFNITQETKTWLMQMHVDLIQQYCLPSGQFFNNKAGYLCFYKGHPNEKEMNQMILSQFKNLIALPDDIPLEILLLLGVIPSKVGGFASSALFNFTPAQIENIIFFTPRYFEKDNRLHATQYRLMQGLIELGYLDAEKSVTHFEIMQLLTKE
B4: SiaT20: sialyltransferase of Campylobacter coli, acc. YP_008473374, SEQ ID NO: 1 (protein, listed as Campylobacter coli)
chain: MQNVIIAGNGPSLQSINYQRLPKEYDIFRCNQFYFEDKYYLGKNIKAAFFNPYPFLQQYHTAKQLVFNNEYKIENIFCSTFNLPFIEKDNFINKFYDFFPDAKLGHKIIENLKEFYAYIKYNEIYLNKRITSGIYMCAIAIALGYKNIYLCGIDFYEGETIYPFKAMSKNIKKIFPWIKDFNPSNFHSKEYDIEILKLLESIYKVNIYALCDNSALANYFPLLVNTDNSFVLENKSDDCINDILLTNNTPGINFYKSQIQVNNTEILLLNFQNMISAKENEISNLNKILQDSYKTINTKENEISNLNKILQDSYKTINTKENEISNLNKILQDKDKLLIVKENLLNFKSRHGKAKFRIQNQLSYKLGQAMMVNSKSLLGYIRMPFVLSYIKDKHKQEQKIYQEKIKKDPSLTLPPLEDYPDYKEALKEKECLTYRLGQTLIKADQEWYKGGYVKMWFEIKKLKKEYKKK
B5: SiaT8: sialyltransferase of Photobacterium sp. JT-ISH-224, acc. BAF92025, SEQ ID NO: 3 (protein, listed as Photobacterium sp.)
chain: MGCNSDSNHNNSDGNITKNKTIEVYVDRATLPTIQQMTQIINENSNNKKLISWSRYPINDEELLESINGSFFKNNSELIKSLDSMILTNDIKKVIINGNTLWAADVVNIIKSIEAFGKKTEIELNFYDDGSAEYVRLYDFSKLPESEQEYKISLSKDNILSSINGTQPFENVVENIYGFSQLYPTTYHMLRADIFETNLPLRSLKGVLSNNIKQMKWDYFKTFNSQQKDKFYNFTGFNPDEIMEQYKASPNKNFIFVGTNSGTATAEQQIDILTEAKNPNSPIITKSIQGFDLFFKGHPSATYNKQIIDAHNMIEIYNKIPFEALIMTDALPDAVGGMGSSVFFSLPNTVENKFIFYKSDTDIENNALIQVMIELNIVNRNDVKLISDLQ
B6: SiaT42: sialyltransferase of Actinobacillus capsulatus DSM 19761, acc. WP_018652686, SEQ ID NO: 25 (protein, listed as Actinobacillus capsulatus)
chain: MERIPQLQAVDIYIDFATIPSLSYFLHFLKHKHDHQRLRLFSLARFEMPQTVIEQYEGIIQFSRNVEHNVEQLLEQLQTILSQEGKQFELHLHLNLFHSFEMFLNLSPTYTKYKEKISKIVLHLYDDGSEGVMKQYQLQQSNSLAQDLASTKASLVSLFKNGEGAFSQIDLIRYVWNAVLETHYYLLSDHFLAHEKLQPLKIELGHYQLLNLSAYQYLSSEDLLWLKQILKIDAELESLMHKLTTQPVYFFSGTTFFNISFEDKQRLANIHAILIREHLDPNSQLFIGEPYLFVFKGHPNSPEINQALREYYPNAIFLPENIPFEILTLLGFSPQKIGGFASTIHVNSEQSKLAKLFFLTSTDEQERNRSDGYIKQYALAQAMLEMQLVSQEQVYYCSLSS

Key:
[1] = In vitro sialylation of LNT by protein extracts, LST-a/-b quantified by LC-MS/MS; format: biochemical; settings: for Ranking in the screening for sialylation of LNT: in words
How it was run: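 E. coli BL21(DE3) crude extracts overexpressing sialyltransferases (IPTG 0.3 mM, 12–16 h at 30 °C) incubated 16 h with 5 mM LNT and 10 mM CMP-Neu5Ac in 50 mM Tris-HCl pH 7.5, 5 mM MgCl2. LST-a and LST-b measured by HILIC LC-MS/MS, MRM in ESI negative mode, against commercial standards.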

[2] = In vivo screening in E. coli #1363/#1730 with lactose as acceptor, sialyllactose identified by TLC; format: cell-based, Escherichia coli BL21(DE3); settings: 1.5 mM lactose, 72 to 96 hours, qualitative via TLC
How it was run: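 E. coli BL21(DE3) #1363/#1730 expressing sialyltransferases were grown at 30 °C in mineral salts medium with 2% glucose and induced with 0.3 mM IPTG. After 1 h, 1.5 mM lactose was added, plus 1.5 mM sialic acid for #1730, and incubation ran 72–96 h. Cell lysates were analysed by silica TLC with thymol staining.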

[3] = In vitro kinetics (Km, Vmax), donor substrate CMP-Neu5Ac; format: biochemical
Experimental: (§1) To rank the best performing sialyltransferases, their Km values for donor and acceptor substrates were determined in vitro. Escherichia coli BL21(DE3) strain #287 was used for overproduction of the enzymes. Cells were incubated in 100 ml 2YT medium in shaking flasks supplemented with 100 μg m^−1 ampicillin at 30° C. until an OD600 of 0.3 was reached. Then, 0.3 mM IPTG was added and the incubation was continued for 12 to 16 hours. Cells were harvested by centrifugation and mechanically disrupted in a defined volume of 50 mM Tris-HCl pH7.5 using glass beads. The protein extract was kept on ice until the assay started. The in vitro assay was carried out in a total volume of 50 μl including 50 mM Tris-HCl pH7.5, 5 mM MgCl2 and varying concentrations of CMP-Neu5Ac (0.05-30 mM) as well as of lactose or LNT (0.1-50 mM). The assay started with the addition of 35 to 750 μg protein extract. After 1 to 10 minutes of incubation at 30° C., the assay was inactivated at 95° C. for 5 minutes. Product formation was determined by mass spectrometry. Data were evaluated using the enzyme kinetic module of SigmaPlot v12.5 to calculate Km and Vmax.
(§2) Their kinetic parameters for CMP-Neu5Ac and LNT as well as lactose are depicted in Table 6.

[4] = In vitro kinetics (Km, Vmax), acceptor substrate LNT; format: biochemical; settings: 30° C., pH7.5, protein extract
Experimental: as §1, §2

[5] = In vitro kinetics (Km, Vmax), acceptor substrate lactose; format: biochemical; settings: 30° C., pH7.5, protein extract
Experimental: as §1, §2

[6] = 5 mM LNT, 10 mM CMP-Neu5Ac, 16 hours, LC-MS/MS, relative quantity, n.d.: not detectable

Molecule | Relative efficacy of sialyltransferases regarding in-vitro production of sialyllacto-N-tetraoses: LST-a [1, 6] | Production of sialyllactose in-vivo [2] | Ranking in the screening for sialylation of LNT [1] | other results
B1 | 15 | 3′-SL |  | 
B2 |  | 6′-SL |  | Relative efficacy of sialyltransferases regarding in-vitro production of sialyllacto-N-tetraoses: LST-b [1, 6]: 10
B3 | 21 | 3′-SL |  | 
B4 | 1.00 × 10^4 | 3′-SL | best performing α-2,3-sialyltransferases for LST-a production | Michaelis-Menten behaviour ([3]; kinetic parameters for CMP-Neu5Ac, LNT and lactose): does not follow a Michaelis-Menten kinetic
B5 | 4.00 × 10^3 |  | best performing α-2,3-sialyltransferases for LST-a production | Km [4]: 4.2 mM; Vmax LNT [4]: 0.32 µmol/min; Km ([3]; 30° C., pH7.5, protein extract): 4 mM; Vmax CMP-Neu5Ac ([3]; 30° C., pH7.5, protein extract): 0.35 µmol/min; Km [5]: 4.3 mM; Vmax Lactose [5]: 0.37 µmol/min
B6 | 3 | 3′-SL |  | 
